# Measured values reported in patent US7456147B2, “Controlled release of active agents utilizing repeat sequence protein polymers” (Dow Corning, Corporation, priority 2003, dated 2008).
# Test: Isoelectric point of SELP repeat sequence protein polymers
# Assay type: physicochemical
substance,measurement,value
"SELP47K: silk-elastin repeat sequence protein block copolymer, head-[(GAGAGS)2(GVGVP)3GKGVP(GVGP)4(GAGAGS)2]13-tail, 886 amino acids",pI of the protein,10.5
